# Test results published in IntAct's records for PubMed 25009770.
# B1: Heterogeneous nuclear ribonucleoprotein A1 (Homo sapiens), P09651-2 (parent)
# chain: MSKSESPKEPEQLRKLFIGGLSFETTDESLRSHFEQWGTLTDCVVMRDPNTKRSRGFGFVTYATVEEVDAAMNARPHKVDGRVVEPKRAVSREDSQRPGAHLTVKKIFVGGIKEDTEEHHLRDYFEQYGKIEVIEIMTDRGSGKKRGFAFVTFDDHDSVDKIVIQKYHTVNGHNCEVRKALSKQEMASASSSQRGRSGSGNFGGGRGGGFGGNDNFGRGGNFSGRGGFGGSRGGGGYGGSGDGYNGFGNDGSNFGGGGSYNDFGNYNNQSSNFGPMKGGNFGGRSSGPYGGGGQYFAKPRNQGGYGGSSSSSSYGSGRRF
# partner: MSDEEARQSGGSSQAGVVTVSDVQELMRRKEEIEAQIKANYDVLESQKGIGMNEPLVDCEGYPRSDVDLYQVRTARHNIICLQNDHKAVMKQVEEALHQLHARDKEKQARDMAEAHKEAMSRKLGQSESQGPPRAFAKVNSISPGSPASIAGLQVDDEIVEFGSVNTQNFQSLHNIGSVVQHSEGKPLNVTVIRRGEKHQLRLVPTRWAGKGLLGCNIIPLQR
# B2: Transcription factor E2-alpha (Homo sapiens), P15923-1 (parent)
# chain: MNQPQRMAPVGTDKELSDLLDFSMMFPLPVTNGKGRPASLAGAQFGGSGLEDRPSSGSWGSGDQSSSSFDPSRTFSEGTHFTESHSSLSSSTFLGPGLGGKSGERGAYASFGRDAGVGGLTQAGFLSGELALNSPGPLSPSGMKGTSQYYPSYSGSSRRRAADGSLDTQPKKVRKVPPGLPSSVYPPSSGEDYGRDATAYPSAKTPSSTYPAPFYVADGSLHPSAELWSPPGQAGFGPMLGGGSSPLPLPPGSGPVGSSGSSSTFGGLHQHERMGYQLHGAEVNGGLPSASSFSSAPGATYGGVSSHTPPVSGADSLLGSRGTTAGSSGDALGKALASIYSPDHSSNNFSSSPSTPVGSPQGLAGTSQWPRAGAPGALSPSYDGGLHGLQSKIEDHLDEAIHVLRSHAVGTAGDMHTLLPGHGALASGFTGPMSLGGRHAGLVGGSHPEDGLAGSTSLMHNHAALPSQPGTLPDLSRPPDSYSGLGRAGATAAASEIKREEKEDEENTSAADHSEEEKKELKAPRARTSPDEDEDDLLPPEQKAEREKERRVANNARERLRVRDINEAFKELGRMCQLHLNSEKPQTKLLILHQAVSVILNLEQQVRERNLNPKAACLKRREEEKVSGVVGDPQMVLSAPHPGLSEAHNPAGHM
# partner: B1 partner
# B3: 26S proteasome non-ATPase regulatory subunit 9 (Homo sapiens), O00233 (parent)
# chain: B1 partner
# B4: Chorionic somatomammotropin hormone 1 (Homo sapiens), P0DML2 (parent)
# chain: MAPGSRTSLLLAFALLCLPWLQEAGAVQTVPLSRLFDHAMLQAHRAHQLAIDTYQEFEETYIPKDQKYSFLHDSQTSFCFSDSIPTPSNMEETQQKSNLELLRISLLLIESWLEPVRFLRSMFANNLVYDTSDSDDYHLLKDLEEGIQTLMGRLEDGSRRTGQILKQTYSKFDTNSHNHDALLKNYGLLYCFRKDMDKVETFLRMVQCRSVEGSCGF
# partner: B1 partner
# Variants of: B1
# Details: with psmd9_human PSMD9, O00233
row,Variant,effect of a mutation on the interaction
1,F320G,disrupting interaction strength

# Variants of: B1
# Details: with psmd9_human PSMD9, O00233
# Remark: another data set of the same source
row,Variant,effect of a mutation on the interaction
1,F320G,decreasing interaction strength

# Variants of: B1
# Details: with psmd9_human PSMD9, O00233
# Remark: another data set of the same source
row,Variant,effect of a mutation on the interaction
1,F320G,with no effect

# Variants of: B2
# Details: with psmd9_human PSMD9, O00233
row,Variant,effect of a mutation on the interaction
1,M654G,decreasing interaction strength

# Variants of: B3
# Details: with csh1_human CSH1, P0DML2
row,Variant,effect of a mutation on the interaction
1,L153G,decreasing interaction strength
2,F162G,decreasing interaction strength

# Variants of: B3
# Details: with HNRNPA1, P09651-2
row,Variant,effect of a mutation on the interaction
1,L153G,decreasing interaction strength
2,F162G,decreasing interaction strength

# Variants of: B3
# Details: with HNRNPA1, P09651-2
# Remark: another data set of the same source
row,Variant,effect of a mutation on the interaction
1,L153G,disrupting interaction strength
2,L124G;Q126G;E128G,disrupting interaction strength
3,Q181G,disrupting interaction strength
4,L173G,with no effect
5,F162G,disrupting interaction strength

# Variants of: B3
# Details: with csh1_human CSH1, P0DML2
# Remark: another data set of the same source
row,Variant,effect of a mutation on the interaction
1,L153G,disrupting interaction strength
2,L124G;Q126G;E128G,disrupting interaction strength
3,Q181G,decreasing interaction strength
4,L173G,with no effect
5,F162G,disrupting interaction strength

# Variants of: B3
# Details: with rs14_human RPS14, P62263
row,Variant,effect of a mutation on the interaction
1,L153G,disrupting interaction strength
2,L124G;Q126G;E128G,disrupting interaction strength
3,Q181G,disrupting interaction strength
4,L173G,with no effect
5,F162G,decreasing interaction strength

# Variants of: B3
# Details: with IL6R
row,Variant,effect of a mutation on the interaction
1,L153G,disrupting interaction strength
2,L124G;Q126G;E128G,disrupting interaction strength
3,Q181G,disrupting interaction strength
4,L173G,with no effect
5,F162G,disrupting interaction strength

# Variants of: B3
# Details: with HNRNPA1, P09651-2
# Remark: another data set of the same source
row,Variant,effect of a mutation on the interaction
1,L124G;Q126G;E128G,decreasing interaction strength
2,Q181G,decreasing interaction strength

# Variants of: B4
# Details: with psmd9_human PSMD9, O00233
row,Variant,effect of a mutation on the interaction
1,F217G,with no effect
